# Tests used:
# HER2ex. [1] = molecular target: HER2ex. (UniProt P04626); assay: SPR (Biacore X100); single cycle method, 0.05% Tween20-PBS, immobilized full-Ab
# HER2ex. [2] = molecular target: HER2ex. (UniProt P04626); assay: SPR (Biacore X100); multi-cycle method, 0.05% Tween20-PBS; details: scFv
# HER2ex. [3] = molecular target: HER2ex. (UniProt P04626); assay: SPR (Biacore X100); multi-cycle method, 0.005% Tween20-PBS; details: scFv
Kd (HER2ex. [1]) [nM],Kd (HER2ex. [2]) [nM],Kd (HER2ex. [3]) [nM],Substance
3.56,,,Trastuzumab full-body Ab
,0.0947,0.256,Trastuzumab scFv

# Source: patent publication US20170218072A1
